# Reference: patent publication US20250340655A1, “EPHA2-TARGETING ANTIBODIES AND THEIR APPLICATIONS IN CANCER TREATMENT” (TAIPEI MEDICAL UNIVERSITY, priority 2022, published 2025)
# Tested on: BxPc-3 tumor
# Experiment: BxPc-3 tumor xenograft model (IgG hSD5, gemcitabine)
# Type: in vivo, mouse
# Procedure: The freshly prepared BxPc-3 and Mia PaCa-2 cancer cells were harvested during the log growth phase and resuspended in PBS for tumor implantation. Each NOD/SCID mouse was subcutaneously inoculated with cancer cells (5×10^6 to BxPc-3 and 1×10^7 to Mia PaCa-2) for tumor formation. The tumor size was measured twice weekly, and the volume was calculated as follows: V=0.5lw^2, where l=the length and w=the width. When the tumor size was approximately 100 mm3, animals were divided into groups that received (a) vehicle alone through intravenous injection (i.v.) once weekly (qwk), (b) control human IgG1 at 20 mg/kg through i.v. qwk, (c) and (d) hSD5 IgG1 at 2 or 20 mg/kg through i.v. qwk, (e) and (f) gemcitabine at 20 or 100 mg/kg through i.v. twice weekly (biw), or (g) hSD5 IgG1 at 2 mg/kg through i.v. qwk combined with gemcitabine at 20 mg/kg through i.v. biw. At the end of the experiment, the antitumor effects were quantified by dividing the tumor volumes in the treatment groups by those in the control groups and multiplying them by 100 to represent tumor growth inhibition (TGI; %). The mice were also examined frequently for overt signs of adverse drug-related side effects.
# The pancreatic tissue microarray slide (US Biomax, PA483e) was used to detect and analyze the EphA2 expression of clinical samples. In the xenograft animal model, the excised BxPc-3 and Mia PaCa-2 tumors were fixed in formalin, embedded in paraffin, and sliced for immunohistochemical staining (IHC). Commercial antibodies (Cell signaling, Dako; Agilent Technologies; and Abcam) were used for staining the EphA2 molecule, cell proliferation marker Ki-67, and apoptosis marker cleaved caspase 3. The effects of staining were observed using a Zeiss Axioskop-2 microscope (Carl Zeiss).
# Administration of IgG hSD5 (20 mg/kg, iv, qwk, indicated as blue filled inverted triangles) and Gemcitabine (100 mg/kg, iv, biw, indicated as orange filled squares) were used to test the inhibition effect on BxPc-3 tumor growth, n=6, TGI denotes Tumor growth inhibition. (FIG. 7A) Administration of IgG hSD5 (2 mg/kg, iv, qwk, indicated by solid black triangles), Gemcitabine (20 mg/kg, iv, biw, indicated by black open squares), and the experimental group that combined IgG and Gemcitabine treatment simultaneously (indicated by solid red diamonds) were used to teat the growth inhibitory effect of BxPc-3 on the tumor. (FIG. 7B) During treatments, the weight changes of each mouse group were tracked. (FIG. 7C) The expression levels of EphA2, cell proliferation marker Ki67, and apoptosis-related marker cleaved caspase3 in the excised tumor groups were analyzed by IHC staining. (FIG. 7D)
molecule,measurement,setting,value
"IgG hSD5: complete humanized anti-EphA2 IgG (IgG1) of hSD5 (antibody, V domains shown) VH: QVQLVESGGGLVQPGGSLRLSCAASGFTFSDYGMGWVRQAPGKGLEWVAGISAAGSFTPYGAAVKGRFTISRDNSKNTVYLQMNSLRAEDTAVYYCARIPSGYRAGEIYTWGQGTLVTVSS VL: LTQPPSVSVSPGQTVRITCSGSSGSYGWYQQKSPGQAPVTLIYDNDKRPSGIPERFSGSSSGSTSTLTISGVQAEDEADYYCGSADSSTYVGMFGGGTKLTVL",effect on growth of tumors in vivo,BxPc-3 xenograft mice,significantly inhibited the growth of tumors
same,TGI (tumor growth inhibition),"BxPc-3 xenograft, 20 mg/kg, iv, qwk",53.1%
same,expression levels of EphA2 and Ki-67 in the tumors,"IHC of removed BxPc-3 tumors, compared with control IgG group (FIG. 7D)",significantly decreased
